Measured values taken from paper PMC7561103, “Notch dimerization and gene dosage are important for normal heart development, intestinal stem cell maintenance, and splenic marginal zone B-cell homeostasis during mite infestation” (PLoS Biology, 2020).

What was measured:
mouse RBPj (aa 53–474) = target: T1, mouse RBPj (aa 53–474) (mouse, UniProt P31266 53-474); test: native gel or EMSA; Notch transcription complexes assembled on fluorescent DNA probes with CSL sites (1.75 nM each probe); RBPj 2.5 to 640 nM in 4-fold steps, with or without N1ICD and MAML at 2 uM; native polyacrylamide gel; settings: both partners purified
T1 construct: RBPj (CSL), mouse, residues 53-474; also called CSL

[1] = target: the molecule itself; test: native gel or EMSA; 1xSPS probe; band intensities fitted to a 2-site binding model with cooperativity factor C (Kd,2nd = Kd,1st/C); RBPj 2.5 to 640 nM, N1ICD and MAML at 2 uM; association of two NTCs on DNA

T1 sequence (P31266 53-474): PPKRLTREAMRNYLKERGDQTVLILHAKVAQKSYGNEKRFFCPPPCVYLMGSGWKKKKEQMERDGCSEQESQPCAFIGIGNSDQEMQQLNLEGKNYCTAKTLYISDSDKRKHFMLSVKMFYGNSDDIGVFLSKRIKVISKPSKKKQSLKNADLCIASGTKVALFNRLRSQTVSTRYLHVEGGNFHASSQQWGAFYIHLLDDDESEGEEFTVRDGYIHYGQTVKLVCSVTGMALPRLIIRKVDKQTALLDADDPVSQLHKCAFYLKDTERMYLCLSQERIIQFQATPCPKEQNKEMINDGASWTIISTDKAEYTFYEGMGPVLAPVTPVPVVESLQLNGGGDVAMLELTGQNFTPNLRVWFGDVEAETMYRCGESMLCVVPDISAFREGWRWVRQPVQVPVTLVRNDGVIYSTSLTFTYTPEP

| Binder | binding result (mouse RBPj (aa 53–474)) | fold stronger binding of the NTC to the second site than to the first site (cooperativity on 1xSPS) [1] [fold] |
| --- | --- | --- |
| mouse N1ICD (aa 1744–2113) (domain or fragment, UniProt Q01705 1744-2113, looked up, Notch1 intracellular domain (RAM-ANK), mouse, residues 1744-2113; also called N1 RAM-ANK domain; WT N1ICD) VLLSRKRRRQHGQLWFPEGFKVSEASKKKRREPLGEDSVGLKPLKNASDGALMDDNQNEWGDEDLETKKFRFEEPVVLPDLSDQTDHRQWTQQHLDAADLRMSAMAPTPPQGEVDADCMDVNVRGPDGFTPLMIASCSGGGLETGNSEEEEDAPAVISDFIYQGASLHNQTDRTGETALHLAARYSRSDAAKRLLEASADANIQDNMGRTPLHAAVSADAQGVFQILLRNRATDLDARMHDGTTPLILAARLAVEGMLEDLINSHADVNAVDDLGKSALHWAAAVNNVDAAVVLLKNGANKDMQNNKEETPLFLAAREGSYETAKVLLDHFANRDITDHMDRLPRDIAQERMHHDIVRLLDEYNLVRSPQ | binds | 5 |
| mouse N1^RAICD (aa 1744–2113) (domain or fragment, UniProt Q01705 1744-2113, looked up, Notch1 intracellular domain (RAM-ANK), mouse, residues 1744-2113, with Arg1974 in the ANK domain changed to alanine; also called RA mutant; N1^R1974A) VLLSRKRRRQHGQLWFPEGFKVSEASKKKRREPLGEDSVGLKPLKNASDGALMDDNQNEWGDEDLETKKFRFEEPVVLPDLSDQTDHRQWTQQHLDAADLRMSAMAPTPPQGEVDADCMDVNVRGPDGFTPLMIASCSGGGLETGNSEEEEDAPAVISDFIYQGASLHNQTDRTGETALHLAARYSRSDAAKRLLEASADANIQDNMGRTPLHAAVSADAQGVFQILLRNAATDLDARMHDGTTPLILAARLAVEGMLEDLINSHADVNAVDDLGKSALHWAAAVNNVDAAVVLLKNGANKDMQNNKEETPLFLAAREGSYETAKVLLDHFANRDITDHMDRLPRDIAQERMHHDIVRLLDEYNLVRSPQ | binds | – |
| human SMT3-MAML1 (aa 1–280) (domain or fragment, UniProt Q92585 1-280, looked up, Mastermind-like 1 (MAML1), human, residues 1-280; also called MAML protein; Mastermind-like) MVLPTCPMAEFALPRHSAVMERLRRRIELCRRHHSTCEARYEAVSPERLELERQHTFALHQRCIQAKAKRAGKHRQPPAATAPAPAAPAPRLDAADGPEHGRPATHLHDTVKRNLDSATSPQNGDQQNGYGDLFPGHKKTRREAPLGVAISSNGLPPASPLGQSDKPSGADALQSSGKHSLGLDSLNKKRLADSSLHLNGGSNPSESFPLSLNKELKQEPVEDLPCMITGTVGSISQSNLMPDLNLNEQEWKELIEELNRSVPDEDMKDLFNEDFEEKKD | binds | – |
